Ends that are not written are not given here.
Target: ^32 P-labeled GST/PKA fusion protein (Schistosoma japonicum (Blood fluke)) [GST: P08515]
Test: peptide on AminoLink resin, precipitation of 32P-labelled control fusion, counting

Binder	fold lower binding than GST/PKA/Src SH3 [fold]
QSRPLPSPPKFT (not fully specified) [peptide pL14-1]	100
RPLPSPP (not fully specified) [peptide pL14-1-7-mer]	100
LALARPLPVPPWRQI (not fully specified) [fuse5B 4.3-15 (15 mer)]	100
LARPLPVPPWRQ (not fully specified; printed as Leu Ala Arg Pro Leu Pro Val Pro Pro Trp Arg Gln) [fuse5B 4.3-12 (12 mer)]	100
RPLPVPP (not fully specified) [fuse5B 4.3-7 (7 mer)]	100

Target: radiolabeled GST/PKA/rasGAP SH3 (Schistosoma japonicum (Blood fluke)) [GST: P08515]
Test: peptide on AminoLink agarose, 32P-labelled fusion, counting

Binder	percent of CPM bound to beads/CPM applied to beads [%]
APPAATPPPPRLFRPPA (also: covalently coupled to AminoLink agarose) [peptide pL17-2]	10

Target: ^32 P-labeled GST/PKA/Src SH3 fusion protein (PKA site phosphorylated) (Schistosoma japonicum (Blood fluke)) [GST: P08515]
Test: as above

Binder	percent of CPM bound to beads/CPM applied to beads [%]
QSRPLPSPPKFT (not fully specified) [peptide pL14-1]	70
TPAPPPLPPRNV (also: covalently coupled to AminoLink agarose) [peptide pL35]	90
KPPTPPPEPET (not fully specified) [pSV40, proline-rich peptide from SV40 T antigen]	< 1

Reference: patent US5541109
